The chains are these.
B1: hu247.22.2-SMCC-DM1 (antibody, human IgG1, kappa, V domains shown)
VH: EVQLVQSGAEVVKPGASVKIPCKASGYTFTDYNMDWVRQSPGKSLEWIGDLNPNNGATIYNEKFQGKATLTVDTSSSTAYMELRSLTSEDTAVYYCARGNYYGNYYYLMDYWGQGTSVTVSS
VL: DIQMTQSPSSLSVSVGERVTITCRASENIYSTLAWYQQKPGKSPKLLVYAATNLADGVPSRFSGSGSGTEYSLKINSLQPDDFGSYYCQHFWGTPYTFGGGTKLEIKR
modifications: DM1 linked through SMCC, average of 3-4 DM1 molecules per antibody; sites (heavy or light chain) not stated
B2: hucMet22Gv2.2 (antibody, V domains shown)
VH: QVQLVQSGAEVKKPGASVKVSCKASGYTFTDYNMDWVRQAPGQRLEWIGDLNPNNGATIYNQKFKGRATLTVDMSASTAYMELSSLRSEDTAVYYCARGNYYGNYYYLMDYWGQGTSVTVSS
VL: DIQMTQSPSSLSASVGDRVTITCRASENIYSTLAWYQQKPGKAPKLLVYAATNLADGVPSRFSGSGSGTDYTLTISSLQPEDFATYYCQHFWGTPYTFGQGTKVEIKR
B3: hucMet27v1.2 (antibody, human IgG1, kappa, V domains shown)
VH: EVQLVESGGGLVQPGGSLRLSCAASGFTFSSYDMSWVRQTPGKGLELVATINSNGVSIYYPDSVKGRFTISRDIAKNTLYLQMSSLRAEDTAMYYCAREEITTEMDYWGQGTSVTVSS
VL: DIVLTQSPASLAVSPGQRATISCRASESVDSYGNSFIHWYQQKPGQPPKLLIYRASNLESGIPARFSGSGSRTDFTLTINPVEANDVATYYCQQSNEEPLTFGGGTKLELKR
B4: hucMET27Gv2.2 (antibody, human IgG1, kappa, V domains shown)
VH: B3 VH with T40A, T78S, S84N, M93V, S113L
VL: EIVLTQSPATLSLSPGERATLSCRASESVDSYGNSFIHWYQQKPGQAPRLLIYRASNLESGIPARFSGSGSRTDFTLTISSLEPEDFAVYYCQQSNEEPLTFGQGTKVELKR
B5: hucMet27Gv1.2 (antibody, human IgG1, kappa, V domains shown)
VH: B3 VH with T40A, T78S, S84N, M93V, S113L
VL: B4 VL with R72G
B6: hucMET27Gv2.1 (antibody, human IgG1, kappa, V domains shown)
VH: B3 VH with T40A, L47W, A49S, I74N, T78S, S84N, M93V, S113L
VL: B4 VL
B7: hucMET27Gv1.1 (antibody, human IgG1, kappa, V domains shown)
VH: B3 VH with T40A, L47W, A49S, I74N, T78S, S84N, M93V, S113L
VL: B4 VL with R72G
B8: hucMet27v1.2-DGN549 (antibody, human IgG1, kappa, V domains shown)
VH: B3 VH
VL: B3 VL
modifications: lysine-linked DGN549
B9: hucMet27v1.2-sSPDB-DM4 (antibody, human IgG1, kappa, V domains shown)
VH: B3 VH
VL: B3 VL
modifications: lysines linked to sSPDB-DM4, on average 3-4 DM4 per antibody
B10: hucMet27Gv1.2-sSPDB-DM4 (antibody, human IgG1, kappa, V domains shown)
VH: B3 VH with T40A, T78S, S84N, M93V, S113L
VL: B4 VL with R72G
modifications: sSPDB-DM4 conjugate; preparation of this one not described
B11: hucMet27Gv1.2-DGN549 (antibody, human IgG1, kappa, V domains shown)
VH: B3 VH with T40A, T78S, S84N, M93V, S113L
VL: B4 VL with R72G
modifications: DGN549 conjugate; linkage site not stated for this antibody
B12: hucMet22Gv2.2-sSPDB-DM4 (antibody, human IgG1, kappa, V domains shown)
VH: B2 VH
VL: B2 VL
modifications: lysines linked to sSPDB-DM4, on average 3-4 DM4 per antibody
B13: hucMet22Gv2.2-DGN549 (antibody, human IgG1, kappa, V domains shown)
VH: B2 VH
VL: B2 VL
modifications: DGN549 conjugate; linkage site not stated for this antibody
B14: hu247.22.2 (antibody, human IgG1, kappa, V domains shown)
VH: B1 VH
VL: B1 VL
B15: hu247.22.2-SPDB-DM4 (antibody, human IgG1, kappa, V domains shown)
VH: B1 VH
VL: B1 VL
modifications: DM4 linked through SPDB; number and sites not stated for this conjugate

This note sets out measurements from patent US20180230218A1.

Where a chain is given by its changes, count along the chain named.

As a reminder, the EC50 (read off the curve) is the concentration that produces a half-maximal response. Read a high EC50 (read off the curve) as weaker potency.

In one assay the target is human cMET (MET, c-Met, HGF receptor) on cells (human) (UniProt P08581). Briefly: cell-based or functional assay.
Sequence of human cMET (MET, c-Met, HGF receptor) on cells (human) (P08581 25-1390): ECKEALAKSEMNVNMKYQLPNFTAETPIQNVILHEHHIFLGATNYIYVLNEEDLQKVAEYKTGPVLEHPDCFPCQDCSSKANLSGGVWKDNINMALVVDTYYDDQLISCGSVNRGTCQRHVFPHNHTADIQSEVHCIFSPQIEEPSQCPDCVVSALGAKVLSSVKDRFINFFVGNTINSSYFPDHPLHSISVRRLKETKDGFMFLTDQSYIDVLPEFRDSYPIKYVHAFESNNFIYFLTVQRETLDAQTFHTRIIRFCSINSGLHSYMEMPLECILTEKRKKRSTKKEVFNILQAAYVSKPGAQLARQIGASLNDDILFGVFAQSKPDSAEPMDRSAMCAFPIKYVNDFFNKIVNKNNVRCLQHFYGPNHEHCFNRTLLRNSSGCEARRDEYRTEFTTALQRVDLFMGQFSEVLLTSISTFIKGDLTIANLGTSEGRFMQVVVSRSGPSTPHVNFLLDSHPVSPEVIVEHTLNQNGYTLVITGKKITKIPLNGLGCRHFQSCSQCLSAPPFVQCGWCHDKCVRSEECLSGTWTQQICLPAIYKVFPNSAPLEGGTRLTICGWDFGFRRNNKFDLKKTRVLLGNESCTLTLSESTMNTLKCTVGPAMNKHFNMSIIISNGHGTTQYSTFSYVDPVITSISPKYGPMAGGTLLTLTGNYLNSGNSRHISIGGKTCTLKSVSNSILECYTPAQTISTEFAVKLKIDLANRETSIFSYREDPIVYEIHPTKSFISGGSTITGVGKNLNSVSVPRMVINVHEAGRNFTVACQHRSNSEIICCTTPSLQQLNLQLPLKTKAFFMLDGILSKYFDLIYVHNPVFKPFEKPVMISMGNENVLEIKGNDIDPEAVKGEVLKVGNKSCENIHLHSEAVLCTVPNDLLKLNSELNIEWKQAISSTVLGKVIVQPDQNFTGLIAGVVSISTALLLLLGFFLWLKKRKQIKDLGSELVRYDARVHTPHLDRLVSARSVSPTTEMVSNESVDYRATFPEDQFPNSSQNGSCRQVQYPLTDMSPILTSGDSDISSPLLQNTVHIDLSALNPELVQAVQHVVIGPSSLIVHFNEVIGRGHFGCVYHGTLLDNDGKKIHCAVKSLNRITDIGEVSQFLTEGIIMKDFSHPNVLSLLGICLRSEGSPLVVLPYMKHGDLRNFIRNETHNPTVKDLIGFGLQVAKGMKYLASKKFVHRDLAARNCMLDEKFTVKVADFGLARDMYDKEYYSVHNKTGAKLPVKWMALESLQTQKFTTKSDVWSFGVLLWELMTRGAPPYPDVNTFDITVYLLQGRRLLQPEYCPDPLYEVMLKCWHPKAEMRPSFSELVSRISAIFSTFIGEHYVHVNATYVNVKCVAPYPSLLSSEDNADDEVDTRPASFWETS
Molecule B1 had an in vitro cytotoxicity in MET-expressing MKN45 cells, EC50 of 0.07 nM.
As for B2, the percent induction of NCI-H441 cell growth (WST-8), normalised to 100 ng/mL HGF was 72%.

A further assay shares this target. Briefly: flow cytometry (FACS), direct binding to NCI-H441 cells expressing human cMET. Background: In flow cytometry, cells or beads pass a laser one at a time.
Turning to B3, the concentration giving a half-maximal response (EC50 (read off the curve)) is 0.4 nM.
On the same count and under the same terms, then B4, with 0.2 nM; and B5, with 0.2 nM; and B6, with 0.2 nM.
Same read-out and setting: under B7 stands 0.2 nM.

Another assay shares this target. Briefly: flow cytometry (FACS) on EBC-1 cells endogenously expressing human cMet, fluorescent secondary antibody.
On to B3, for which the half-maximal effective concentration (EC50 (read off the curve)) was found to be 0.3 nM.
For B8, the concentration giving a half-maximal response (EC50 (read off the curve)) was 0.4 nM.
Molecule B9 showed an EC50 (read off the curve) of 0.2 nM.
In the case of B5, the concentration giving a half-maximal response (EC50 (read off the curve)) turned out to be 0.5 nM.
On to B10, for which the half-maximal effective concentration (EC50 (read off the curve)) amounted to 0.5 nM.
In turn, B11 gave a half-maximal effective concentration (EC50 (read off the curve)) of 0.4 nM.
Still for that read-out and setting: then B2, with 0.1 nM.
Still for that read-out and setting: under B12 stands 0.2 nM; under B13, 0.2 nM.

Another assay has the same target. Briefly: flow cytometry on MET-expressing BxPC3 cells, FITC anti-human IgG; 'affinity' (apparent).
With B1, the Kd was 0.08 nM.
As for B14, the Kd came to 0.09 nM.
On the same count and under the same terms, then B15, with 0.07 nM.
